In publication PMC7144924 (Nucleic Acids Research, 2020):

Target: T1, GST-tagged R289A mutant Rrp9 (S. cerevisiae, UniProt Q06506 1-573, R289A)
T1 sequence (looked up): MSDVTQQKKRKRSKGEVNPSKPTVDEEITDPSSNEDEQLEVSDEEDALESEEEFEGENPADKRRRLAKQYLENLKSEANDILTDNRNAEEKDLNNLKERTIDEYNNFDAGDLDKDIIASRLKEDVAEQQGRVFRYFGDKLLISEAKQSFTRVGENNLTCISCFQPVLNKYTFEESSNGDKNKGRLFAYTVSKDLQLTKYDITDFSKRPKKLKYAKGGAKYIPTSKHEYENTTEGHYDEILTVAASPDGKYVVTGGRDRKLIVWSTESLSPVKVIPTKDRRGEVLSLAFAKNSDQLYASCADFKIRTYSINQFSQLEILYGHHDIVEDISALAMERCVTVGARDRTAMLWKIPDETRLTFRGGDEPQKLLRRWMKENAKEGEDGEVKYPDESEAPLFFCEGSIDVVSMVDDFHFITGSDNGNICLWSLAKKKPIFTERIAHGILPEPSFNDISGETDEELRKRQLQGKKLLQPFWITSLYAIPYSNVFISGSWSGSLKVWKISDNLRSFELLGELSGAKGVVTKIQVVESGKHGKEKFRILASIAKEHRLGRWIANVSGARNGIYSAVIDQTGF
Experiment: pull-down

- reduction of recovery relative to WT Rrp9: 20%
B1: [35S]-methionine-labeled Rrp36, in vitro translated (natural protein, S. cerevisiae, UniProt Q12481 1-300, looked up)
chain: MSYYFKNLKPDLNSDVEEDDGNLLESIMANKSKREIDEQESSDDELKTLSFGSLKKAETVIDEEDFKDTKPVHKKPITTTYREESFDEDEDSEDQSDEDAGFFEEDSEDETHHGQKVPKKKSKHAPVEQSSKKRVPRVRNIPGLEIPRNKRSNLYQDIRFDKSTGKALDSSIIRKRYQFLDEYREKEIDELQKLLQERKFLSKIDQGEREEMEQRLKSMKSRLQSMKNKDLEREILKEYENDMNKNNNTRYHLKKSEKRKVVQKWKFDHMKAKQREKVMERKRKKRLGKEFKQFEFHNRR
modifications: [35S]-methionine-labeled
